The values that follow are results of earlier work, collected in article PMC4463550.

Series [1] concerns the target His471 (UniProt position 471, WLSVGHVDEFL). The following applies: PAD4; state not stated.
Series [2] concerns the target Cys645 (UniProt position 645, HGEVHCGTNVR). The series is described as follows: chemical modification. The following applies: PAD4, no substrate; calcium state not stated.
In series [3] the target is PAD4 (Homo sapiens) (UniProt Q9UM07).
For series [4], the target named is Cys647 (UniProt position 647, LGEVHCGTNVR). The series is described as follows: chemical modification. The following applies: calcium state not stated.

Chain of PAD4 (Q9UM07 whole entry): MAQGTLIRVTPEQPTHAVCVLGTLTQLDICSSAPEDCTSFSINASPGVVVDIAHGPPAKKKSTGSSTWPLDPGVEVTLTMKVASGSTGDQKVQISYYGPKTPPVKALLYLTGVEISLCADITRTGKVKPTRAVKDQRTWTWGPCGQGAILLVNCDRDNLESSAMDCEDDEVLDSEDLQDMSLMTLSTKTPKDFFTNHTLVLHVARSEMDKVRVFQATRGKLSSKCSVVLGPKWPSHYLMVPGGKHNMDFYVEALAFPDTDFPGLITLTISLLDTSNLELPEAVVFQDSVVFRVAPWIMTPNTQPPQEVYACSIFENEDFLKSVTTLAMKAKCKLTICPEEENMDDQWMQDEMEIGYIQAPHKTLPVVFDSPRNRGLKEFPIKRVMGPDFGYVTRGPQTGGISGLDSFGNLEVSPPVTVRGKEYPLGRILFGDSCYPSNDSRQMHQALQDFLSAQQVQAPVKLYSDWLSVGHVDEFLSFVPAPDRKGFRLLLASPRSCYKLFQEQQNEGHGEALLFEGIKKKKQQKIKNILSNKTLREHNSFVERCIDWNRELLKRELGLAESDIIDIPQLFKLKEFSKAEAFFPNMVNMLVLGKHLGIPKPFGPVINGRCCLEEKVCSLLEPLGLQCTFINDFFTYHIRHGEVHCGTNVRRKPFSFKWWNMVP

As usually defined, the pKa is the pH at which an ionisable group is half protonated. Take “Protein arginine deiminase 4 (PAD4) (Homo sapiens)”: the pKa result in series [1] is listed as “∼7.3”; in series [2], “≈ 8.3”.

The Kd is the equilibrium constant for the complex coming apart. Turning to PAD4 (from UniProt Q9UM07), the Kd in series [3] was 450 nM.

For “Protein arginine deiminase 2 (PAD2) (Homo sapiens)”, the pKa in series [4] (PAD2, no substrate) is listed as 8.2; in series [4] (PAD2 reacting with the substrate-mimicking, positively charged inactivator 2-chloroacetamidine) it was 7.2.
